B1: MAdCAM antibody Table 1 clone 59 (scFv)
scFv: EVQLLESGGGLVQPGGSLRLSCAASGFTFSDFWMHWVRQAPGKGLEWISYISGDSGYTNYADSVKGRFTISRDNSKNTLYLQMNSLRAEDTAVYYCARDRPYYYYMDVWGKGTTVTVSSGGGGSGGGGSGGGGSGGGGSDIQMTQSPSSLSASVGDRVTITCRASQSVSRSLAWYQQKPGKAPKLLIYAASSLQSGVPSRFSGSGSGTDFTLTISSLQPEDFATYYCQQYKSYPVTFGQGTKVEIK
B2: MAdCAM antibody Table 1 clone 63 (scFv)
scFv: EVQLLESGGGLVKPGGSLRLSCAASGFTFDDYAMHWVRQAPGKGLEWVASITSSSAFIDYAASVKGRFTISRDDSKNTLYLQMNSLKTEDTAVYYCARERVDWNSYFDLWGRGTLVTVSSGGGGSGGGGSGGGGSGGGGSEIVMTQSPATLSVSPGERATLSCRASQGISNSYLAWYQQKPGQAPRLLIYGASTRATGIPARFSGSGSGTEFTLTISSLQSEDFAVYYCQQYYTYPPTFGPGTKVDIK
B3: MAdCAM antibody Table 1 clone 2 (scFv)
scFv: QVQLVQSGAEVKKPGASVKVSCKASGYPFIGYYLHWVRQAPGQGLEWMGIINPSGGSTSYAQKFQGRVTMTRDTSTSTVYMELSSLRSEDTAVYYCAREGRLSYGMDAWGQGTLVTVSSGGGGSGGGGSGGGGSGGGGSDIQMTQSPSSLSASVGDRVTITCRASQSISSYLAWYQQKPGKAPKLLIYGASTLESGVPSRFSGSGSGTDFTLTISSLQPEDFATYYCQQTWGPPFTFGQGTKLEIK
B4: MAdCAM antibody Table 1 clone 4 (scFv)
scFv: QVQLVQSGAEVKKPGASVKVSCKASGGTFSSYAISWVRQAPGQGLEWMGSINPSGDTTSYAQKFQGRVTMTRDTSTSTVYMELSSLRSEDTAVYYCAKDKAQWLVGYFDYWGQGTLVTVSSGGGGSGGGGSGGGGSGGGGSDIQMTQSPSSLSASVGDRVTITCQASQDISNSLNWYQQKPGKAPKLLIYAASSLQSGVPSRFSGSGSGTDFTLTISSLQPEDFATYYCQQSYSSVITFGQGTKVEIK
B5: MAdCAM antibody Table 1 clone 5 (scFv)
scFv: EVQLLESGGGLVQPGGSLRLSCAASGFTFSSYWMHWVRQAPGKGLEWVSSISPGGSNIDYADSVKGRFTISRDNSKNTLYLQMNSLRAEDTAVYYCAREVQLSHYDYWGQGTLVTVSSGGGGSGGGGSGGGGSGGGGSDIQMTQSPSSLSASVGDRVTITCRASQGISNSLAWYQQKPGKAPKLLIYGASSLQSGVPSRFSGSGSGTDFTLTISSLQPEDFATYYCQQANSFPFTFGQGTKVEIK
B6: MAdCAM antibody Table 1 clone 6 (scFv)
scFv: EVQLLESGGGLVQPGGSLRLSCAASGFTFNNYAFHWVRQAPGKGLEWVSRINSYGTSTTYADSVKGRFTISRDNSKNTLYLQMNSLRAEDTAVYYCAREGPVAGYWYFDLWGQGTLVTVSSGGGGSGGGGSGGGGSGGGGSDIQMTQSPSSLSASVGDRVTITCRASQIIGTNLAWYQQKPGKAPKLLIYGASSLQSGVPSRFSGSGSGTDFTLTISSLQPEDFATYYCQQSYRLPFTFGQGTKVEIK

Each binder was assayed against T1, recombinant mouse MAdCAM-1 (mouse, UniProt Q61826 22-364, limits assumed) (assay: Octet).
T1 construct: also called mMAdCAM-1
T1 sequence (looked up): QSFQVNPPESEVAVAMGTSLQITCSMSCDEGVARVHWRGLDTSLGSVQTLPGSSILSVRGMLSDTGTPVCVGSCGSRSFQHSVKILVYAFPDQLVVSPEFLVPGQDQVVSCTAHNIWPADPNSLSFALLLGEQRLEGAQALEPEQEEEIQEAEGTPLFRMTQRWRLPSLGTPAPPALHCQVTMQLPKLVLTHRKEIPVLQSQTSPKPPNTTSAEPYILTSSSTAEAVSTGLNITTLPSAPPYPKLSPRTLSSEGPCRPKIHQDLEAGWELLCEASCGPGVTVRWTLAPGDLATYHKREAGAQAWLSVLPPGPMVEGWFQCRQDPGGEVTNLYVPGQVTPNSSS

Q: Does B1 bind?
A: Result: binds

Q: Does B2 bind?
A: Result: binds

Q: Does B3 bind?
A: Result: binds

Q: Does B4 bind?
A: Result: binds

Q: Does B5 bind?
A: Result: binds

Q: Does B6 bind?
A: Result: no binding

The binders below were run against T2, human MAdCAM protein (human, UniProt Q13477 19-317, limits assumed) (assay: Octet).
T2 construct: also called soluble monomeric human MAdCAM; recombinant human MAdCAM
T2 sequence (looked up): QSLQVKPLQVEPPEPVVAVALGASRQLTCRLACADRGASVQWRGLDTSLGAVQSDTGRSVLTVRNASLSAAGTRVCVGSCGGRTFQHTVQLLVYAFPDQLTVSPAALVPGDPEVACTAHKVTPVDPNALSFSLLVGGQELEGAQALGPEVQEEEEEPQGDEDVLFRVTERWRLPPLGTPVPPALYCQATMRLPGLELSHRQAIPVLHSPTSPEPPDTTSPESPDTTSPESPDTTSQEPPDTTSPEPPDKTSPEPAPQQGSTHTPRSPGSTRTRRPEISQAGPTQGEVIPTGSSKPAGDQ

Q: Does B1 bind?
A: Result: binds

Q: Does B2 bind?
A: Result: binds

Q: Does B3 bind?
A: Result: binds

Q: Does B4 bind?
A: Result: binds

Q: Does B5 bind?
A: Result: binds

Q: Does B6 bind?
A: Result: binds

The binders below were run against T3, human MAdCAM expressed on cells (human, UniProt Q13477 19-382) (assay: cell binding).
T3 construct: whole, on cells
T3 sequence (looked up): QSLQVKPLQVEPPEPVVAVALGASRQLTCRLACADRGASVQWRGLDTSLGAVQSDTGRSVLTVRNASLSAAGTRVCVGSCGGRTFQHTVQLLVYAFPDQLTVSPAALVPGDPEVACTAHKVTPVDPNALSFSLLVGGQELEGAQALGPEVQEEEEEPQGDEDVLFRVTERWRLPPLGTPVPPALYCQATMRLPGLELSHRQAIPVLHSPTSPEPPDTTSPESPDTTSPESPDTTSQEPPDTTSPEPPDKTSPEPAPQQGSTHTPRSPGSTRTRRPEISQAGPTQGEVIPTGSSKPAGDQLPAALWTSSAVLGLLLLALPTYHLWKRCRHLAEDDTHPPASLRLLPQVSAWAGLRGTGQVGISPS

Q: Does B1 bind?
A: Result: binds

Q: Does B2 bind?
A: Result: binds

Q: Does B3 bind?
A: Result: binds

Q: Does B4 bind?
A: Result: binds

Q: Does B5 bind?
A: Result: binds

Q: Does B6 bind?
A: Result: binds

What follows are binders tested against T4, mouse MAdCAM expressed on cells (mouse, UniProt Q61826 22-405) (assay: cell binding).
T4 construct: whole, on cells
T4 sequence (looked up): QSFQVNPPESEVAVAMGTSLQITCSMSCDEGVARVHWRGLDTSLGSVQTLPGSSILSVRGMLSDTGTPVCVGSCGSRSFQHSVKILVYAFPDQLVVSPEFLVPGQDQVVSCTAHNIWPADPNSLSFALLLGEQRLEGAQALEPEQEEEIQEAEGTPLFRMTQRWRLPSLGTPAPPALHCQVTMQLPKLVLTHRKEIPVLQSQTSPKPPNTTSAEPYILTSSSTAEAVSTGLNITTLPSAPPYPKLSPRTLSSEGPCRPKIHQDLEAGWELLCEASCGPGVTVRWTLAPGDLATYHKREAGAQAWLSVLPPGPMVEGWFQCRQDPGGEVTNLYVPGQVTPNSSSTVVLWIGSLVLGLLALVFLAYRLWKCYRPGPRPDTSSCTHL

Q: Does B1 bind?
A: Result: binds

Q: Does B2 bind?
A: Result: binds

Q: Does B3 bind?
A: Result: binds

Q: Does B4 bind?
A: Result: binds

Q: Does B5 bind?
A: Result: binds

Q: Does B6 bind?
A: Result: no binding

Source: patent US20230235004A1 (published 2023)
